B1: unnamed (parent)
chain 1: PCVVGGQADTIYPAIANQMAHQMHEDAQTEASKRGLAKLRADAKQGIYKKNRKPQELSNICNITLQHSNDSRNGNNGGACTGKDGNNERFKIGTEWKIGEKVETTDTDAYIPPRRQHMCTSNLENLNVSWVTEDGKAIHSLLGDVQLAAKMDADEIIKRYKKHNTLTDPIQQKDQESICRAVRYSFADLGDIIRGRDLWEHGDQTKLQGHLQIIFGKIKEEIKKKHPGINGNDKYKGDEKNNPPYKQLREDWWEANRHQVWRAMQCELKNLKKSNGDCHYNSRGTPLDDYIPQRLRWMVEWAEWFCKMQSQEYDKLMKQCSQCMSKGGDCRKGDVNCTSCEQACEEYKKKIKKWEKQWNKIKDKYEELYLQAKIAFAGTSFGGGDRDYQQMVHFFKELQKVTGDTTLGDTTSPYSTAAGYIHQEGHVDECTEQTQFCKNRNGNTASGKEDDNYTFKDPPPKYANACKCD
chain 2: QTSVSPSKVILPRGGSVLVTCSTSCDQPKLLGIETPLPKKELLLPGNNRKVYELSNVQEDSQPMCYSNCPDGQSTAKTFLTVYWTPERVELAPLPSWQPVGKNLTLRCQVEGGAPRANLTVVLLRGEKELKREPAVGEPAEVTTTVLVRRDHHGANFSCRTELDLRPQGLELFENTSAPYQLQTFVLPATPPQLVSPRVLEVDTQGTVVCSLDGLFPVSEAQVHLALGDQRLNPTVTYGNDSFSAKASVSVTAEDEGTQRLTCAVILGNQSQETLQTVTIYSFPAPNVILTKPEVSEGTEVTVKCEAHPRAKVTLNGVPAQPLGPRAQLLLKATPEDNGRSFSCSATLEVAGQLIHKNQTRELRVLYGPRLDERDCPGNWTWPENSQQTPMCQAWGNPLPELKCLKDGTFPLPIGESVTVTRDLEGTYLCRARSTQGEVTRKVTVNVLSPRYE

Variants of: B1
Experiment: SPR
Details: with partner chain of the complex shown; top curve of the dilution series (250 nM), read at end of injection (~250 s); parent: 260; read off a plot

Variant	response
chain 1 L407D	220 RU
chain 1 G382A G383A G384A	260 RU
chain 1 N241A	280 RU
chain 1 N242A	270 RU
chain 1 L370D	70 RU
chain 1 Q389A	280 RU
chain 1 G382A G383A	280 RU
chain 1 E366A	190 RU
chain 1 G383A	270 RU

From publication PMC6778195
